Source: the supplement of paper PMC10126150
± gives the standard deviation of the averaged measurements.

Test system: ATP
Test: switch fluorescence ratio, 500 uM ATP over buffer (Cy3 cluster intensity, sum of 5 cycles each) (fold (ratio)); higher = stronger signal-on switching upon ATP binding; sequences stand for … in TCGTCGGCAGCGTCAGATGTGTATAAGAGACAGTTTTTTTTTTTTTTTTTTTTTTTTT…TC
Conditions: aptamer strand: ATP DNA aptamer (quencher-CACCTGGGGGAGTATTGCGGAGGAAGG + anchor), 100 nM annealed; ATP concentration: 500 uM
Summary of the method: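 Clusters with intensities outside 100-1000 RFU were excluded. The remaining Cy3-labelled switching-strand clusters on a modified Illumina MiSeq flow-cell had been annealed to 100 nM quencher-labelled ATP aptamer and imaged in selection buffer, then after 15 min with 500 uM ATP at 22 °C, for five cycles separated by NaOH stripping and re-annealing. The fluorescence ratio, averaged per switch-domain sequence, is each cluster's summed target-cycle Cy3 intensity over its summed buffer-cycle Cy3 intensity.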
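Also: ATP exposure 15 min at 22 °C before imaging.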

| Sequence | switch fluorescence ratio |
| --- | --- |
| ATGTTTGAGT | 1.01 ± 0.026 |
| ACAGCGGGTG | 1.087 ± 0.01 |
| GATTATGGTT | 0.9891 ± 0.003 |
| AAATATCTGC | 1.04 ± 0.029 |
| TGGATAAGGT | 1.05 ± 0.13 |
| CACCAATAGC | 1.31 ± 0.059 |
| GAGAGAATAG | 1.03 ± 0.034 |
| GGTTACTGTT | 1.08 ± 0.096 |
| GGGACTGGGG | 1.02 ± 0.061 |
| CGATTGGGGG | 1.01 ± 0.018 |
| GGTTGAAGTG | 0.974 ± 0.012 |
| TCTTGCAAGG | 1.11 ± 0.17 |
| CAATACTACT | 1.361 ± 0.01 |
| TGCACAGTCG | 1.01 ± 0.036 |
| TAGAGTAGCT | 1 ± 0.035 |
| AAAGTTCGGG | 0.982 ± 0.033 |
| GGGCTATATT | 0.9904 ± 0.0084 |
| ACGGGGGAGT | 1.03 ± 0.019 |
| TTATGAGGGG | 1.009 ± 0.0077 |
| AACGATTGGC | 1.08 ± 0.018 |
| TTCTGCGGCT | 1.12 ± 0.039 |
| AAATGTCTCT | 1.01 ± 0.012 |
| TTTTAAGCAA | 1.53 ± 0.17 |
| CCCATACTGA | 1.11 ± 0.036 |
| GATACCATGG | 0.985 ± 0.03 |

| Sequence | switch fluorescence ratio |
| --- | --- |
| TGATCGTG | 1.01 ± 0.015 |
| GAGATGGTAG | 0.976 ± 0.0069 |
| CTTAGTGAAA | 0.988 ± 0.029 |
| CCGGACTTGG | 0.96 ± 0.09 |
| TGCGGTTAGC | 1.004 ± 0.006 |
| AAGGTAATGG | 1.02 ± 0.014 |
| TTCTGGGGCT | 1.03 ± 0.017 |
| ATGTGTCTGT | 1.01 ± 0.017 |
| TGGGTATAGG | 0.975 ± 0.016 |
| TTTTTGCTTA | 0.993 ± 0.013 |
| TTTGGCTGTG | 0.973 ± 0.029 |
| TTTACCGAAT | 1.05 ± 0.017 |
| GATGGAGTTC | 0.983 ± 0.029 |
| TTTCGTATTC | 1 ± 0.015 |
| TGGAGGGTCG | 1.021 ± 0.0023 |
| AAAAGGATCT | 1.02 ± 0.029 |
| ATTTTGTAAT | 1 ± 0.019 |
| TATCAGCATG | 1.01 ± 0.033 |
| CTGCGACTTT | 1.02 ± 0.035 |
| GCCCGGAGCG | 1.68 ± 0.13 |
| TAATTTGTTT | 1.03 ± 0.025 |
| TTAGTTGTAA | 1.012 ± 0.0049 |
| TCGATGGGTG | 1.01 ± 0.032 |
| ATGAGAAGTT | 1.01 ± 0.007 |
| GAAAGGTTGG | 0.993 ± 0.025 |

| Sequence | switch fluorescence ratio |
| --- | --- |
| GGTAGGGAGC | 0.993 ± 0.055 |
| GTTCGAAGGG | 0.987 ± 0.013 |
| TTCAGGGAGA | 1.005 ± 0.008 |
| GCAGGGATGA | 0.994 ± 0.0052 |
| CAGGGTATTT | 0.981 ± 0.032 |
| CTAATGGTTT | 0.982 ± 0.024 |
| GATTACAGCG | 1.01 ± 0.02 |
| TTTTTCTGCT | 0.9786 ± 0.0051 |
| CGTGGGACTG | 1.02 ± 0.017 |
| CAATGTTAGA | 1 ± 0.014 |
| AGTCATCGGC | 1.01 ± 0.056 |
| TAAAATTATA | 1.02 ± 0.021 |
| ACCTTGCACA | 1.252 ± 0.012 |
| CGGGGGTGTC | 0.998 ± 0.026 |
| GCGGGGTCGT | 0.977 ± 0.032 |
| CGGTTGGCGT | 1.04 ± 0.088 |
| ATTAATATGG | 1.02 ± 0.015 |
| CATTAGTTGT | 1.02 ± 0.011 |
| ATCATTATTG | 1 ± 0.013 |
| CCCGGTGTGT | 1.65 ± 0.025 |
| CCTAGGGTTC | 0.984 ± 0.01 |
| GAAGTACTAT | 1.2 ± 0.021 |
| AATGGGGACA | 0.995 ± 0.051 |
| TTAGAGGCAT | 1.05 ± 0.066 |
| TGAAATCAGT | 1.01 ± 0.018 |

| Sequence | switch fluorescence ratio |
| --- | --- |
| CGTTTGGGCC | 1.01 ± 0.069 |
| GGATGGACAG | 1 ± 0.01 |
| ATCATATATC | 0.983 ± 0.089 |
| GAGTTTATGG | 0.984 ± 0.029 |
| GGGAATACGT | 1.03 ± 0.029 |
| GAGCACGTTT | 0.9963 ± 0.0072 |
| GCATGTGTAT | 1.01 ± 0.031 |
| ATAGGCGGGA | 0.9932 ± 0.00079 |
| CTGGGCGGTG | 0.9982 ± 0.0052 |
| TTTCCGGGAC | 1.41 ± 0.066 |
| AGGGGCCCGC | 0.98 ± 0.018 |
| TGAAGGGGTG | 0.989 ± 0.026 |
| TTGGACATTT | 0.999 ± 0.013 |
| GGCCGCACGC | 3.69 ± 0.059 |
| TGGATAGGGT | 0.961 ± 0.037 |
| TAAGCAAATG | 1.038 ± 0.0072 |
| GAGGCTTAAG | 1.01 ± 0.019 |
| TGTTTGATGT | 0.983 ± 0.019 |
| AGGACTTTCT | 1.036 ± 0.0013 |
| CGATTTCTCT | 0.973 ± 0.04 |
| ATGTTTTATG | 0.992 ± 0.042 |
| AGTTAGAGGT | 1.05 ± 0.018 |
| TCGGCCATGG | 0.985 ± 0.031 |
| CCACGAAGAT | 1.061 ± 0.0037 |
| TCCTTCAACT | 1.08 ± 0.045 |
